Target: the molecule itself
Assay: immunoprecipitation, non-reducing SDS-PAGE and Western blot; culture supernatants of confluent melanoma cell lines immunoprecipitated with H3 mAb, SDS-10% PAGE under non-reducing condition, blot with HRP-coupled H3 mAb

B1: soluble form of CD160 (sCD160) released by melanoma cell lines (natural protein, UniProt O95971 25-159, looked up)
chain: GCINITSSASQEGTRLNLICTVWHKKEEAEGFVVFLCKDRSGDCSPETSLKQLRLKRDPGIDGVGEISSQLMFTISQVTPLHSGTYQCCARSQKSGIRLQGHFFSILFTETGNYTVTGLKQRQHLEFSHNEGTLS
notes: soluble form of CD160, derived from the CD160-GPI isoform, released by human melanoma cell lines; recovered as a 55-kDa species called dimeric sCD160; also called secreted sCD160; sCD160 produced by WM1361; source: endogenous, culture supernatant of melanoma cell lines (WM1361, COLO829, SKMEL5)
stoichiometry N: 2
